Measurements published in the supplement of paper PMC10724198.
± gives the standard deviation of the averaged measurements.

tested on: Saccharomyces cerevisiae; assay: protein stability index of tFT-peptide fusion (C-terminal peptide) (PSI (0-1 scale)); higher = more stable (slower turnover); conditions: genetic background: wild type; temperature: 30 C
Experimental: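 Multiplexed protein stability (MPS) profiling in S. cerevisiae. Random 12-aa peptides (tFT-X12 library) are fused to the C-terminus of a sfGFP-mCherry tandem fluorescent timer, after mCherry and a GGGS linker. Cells are FACS-sorted into 8 mCherry/sfGFP bins and deep-sequenced. The protein stability index (PSI) is the read-weighted bin average, scaled from 0 (unstable) to 1 (stable). Only peptides with >10 reads are reported; cells were grown at 30 °C in SC-His with glucose.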
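Further: PSI is a weighted mean of sequencing reads over stability bins, variants kept only with over 10 reads, mCherry proximal and sfGFP distal, peptide attached via GGGS linker.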

| Sequence | protein stability index |
| --- | --- |
| GVWVASCSGAGI | 0.632 ± 0.033 |
| GWALGRAGASGA | 0.701 ± 0.067 |
| GWGGAGGGGGRV | 0.652 ± 0.1 |
| GWGGCGGWGFVG | 0.605 ± 0.011 |
| GWGGIGDGGPVW | 0.679 ± 0.019 |
| GWGVPGPEPREP | 0.658 ± 0.064 |
| GWHVGCGCTVFR | 0.671 ± 0.061 |
| GWKLGAGRRGVI | 0.704 ± 0.029 |
| GWLGFVGGVRVQ | 0.685 ± 0.0063 |
| GWRGAAGVPTVD | 0.73 ± 0.031 |
| GWSFDLVSAQWG | 0.817 ± 0.02 |
| GWSGCNWCIGVG | 0.584 ± 0.018 |
| GWTGEVGVAAGA | 0.65 ± 0.064 |
| GWVLRERGRGVG | 0.572 ± 0.07 |
| GWWAVSRSGCCC | 0.693 ± 0.015 |
| GYAGSRRLGLQE | 0.641 ± 0.015 |
| GYHRGLSHVLED | 0.694 ± 0.018 |
| GYLGEIHLHYVQ | 0.708 ± 0.048 |
| GYWGRGGGLGGV | 0.7438 ± 0.001 |
| GYYVLSIGGVIV | 0.574 ± 0.0065 |
| HAARFRLPASPC | 0.672 ± 0.051 |
| HAAWQHPNTTQV | 0.714 ± 0.013 |
| HADFRTLLASRS | 0.67 ± 0.018 |
| HAHPDQTKLDTA | 0.7 ± 0.063 |
| HARAGTKPLTGY | 0.678 ± 0.0092 |
| HCSWRSLMTLAG | 0.642 ± 0.031 |

| Sequence | protein stability index |
| --- | --- |
| HCVRVEWVEGRR | 0.668 ± 0.023 |
| HDGIQVSVRRRT | 0.67 ± 0.011 |
| HFSSLDPFLPSL | 0.712 ± 0.016 |
| HGFHSPPSDLPT | 0.724 ± 0.15 |
| HGLPPPLPPLRS | 0.689 ± 0.019 |
| HGSRGGIINEEG | 0.642 ± 0.082 |
| HGYRWCLHARFG | 0.556 ± 0.058 |
| HHPSPPSPSPAC | 0.698 ± 0.018 |
| HIGDLRDSCFIS | 0.693 ± 0.031 |
| HIIRGDCVGVLG | 0.618 ± 0.017 |
| HILDHVTSSLSF | 0.66 ± 0.011 |
| HILINTCSCASL | 0.546 ± 0.044 |
| HISSFPSPPPPV | 0.711 ± 0.054 |
| HIVSRKYNYPCT | 0.739 ± 0.088 |
| HKEYGTTCYGYR | 0.691 ± 0.049 |
| HLCVDHLGCHSF | 0.703 ± 0.048 |
| HLFWSRGICFFR | 0.631 ± 0.062 |
| HLHGKTERPSHL | 0.811 ± 0.058 |
| HLIRRGGSQTWT | 0.713 ± 0.049 |
| HLLLLSLVFFFW | 0.744 ± 0.017 |
| HLSLPTRAPIRH | 0.696 ± 0.019 |
| HMCSTYGKLRLD | 0.622 ± 0.052 |
| HMLVCPLAALGI | 0.6884 ± 0.0031 |
| HPAGPSGRLLPT | 0.685 ± 0.0095 |
| HPETIGHNVRPR | 0.708 ± 0.048 |
| HPFARGPLSRHP | 0.7 ± 0.081 |

| Sequence | protein stability index |
| --- | --- |
| HPIPHDVSGRRN | 0.784 ± 0.1 |
| HPPITPYLHRRT | 0.724 ± 0.17 |
| HPPPCLSLPSSP | 0.731 ± 0.095 |
| HPPPETEPIPVA | 0.574 ± 0.066 |
| HPPPSPRPPPPP | 0.691 ± 0.039 |
| HPSNMYSGDEAP | 0.68 ± 0.01 |
| HPSPPPPPPFPT | 0.748 ± 0.038 |
| HQYLGMCLDRPV | 0.6455 ± 0.0054 |
| HRASFRIGFRTF | 0.758 ± 0.033 |
| HRCLCGCLDSVV | 0.726 ± 0.028 |
| HRDPRFSRCSTC | 0.69 ± 0.034 |
| HREGTTAFFKTH | 0.536 ± 0.013 |
| HRLMDTNFSRSP | 0.743 ± 0.061 |
| HRLTGMRKRGRG | 0.658 ± 0.066 |
| HRLWAGWGLEQC | 0.712 ± 0.013 |
| HRPDGTSRKSGA | 0.662 ± 0.024 |
| HRRCPVPRGSSP | 0.704 ± 0.019 |
| HRYRAFPLASSR | 0.618 ± 0.056 |
| HSASSDAGIKVR | 0.718 ± 0.0083 |
| HSFPSTLRRCFL | 0.731 ± 0.095 |
| HSHIPPNLTYCP | 0.69396 ± 0.00029 |
| HSIPPPRRHPTI | 0.742 ± 0.025 |
| HSPPAGPPHTKT | 0.6694 ± 0.0039 |
| HSPPPPFSPFSP | 0.667 ± 0.024 |
| HSPSSLCHPSTG | 0.727 ± 0.098 |
| HSRGGEPLTPAW | 0.642 ± 0.092 |

| Sequence | protein stability index |
| --- | --- |
| HSSPPPAPPPLP | 0.697 ± 0.019 |
| HSSSGTHRIKKT | 0.667 ± 0.052 |
| HTKYISRRRTKR | 0.706 ± 0.013 |
| HTPTLPLHPPRY | 0.642 ± 0.037 |
| HTTMVGVAEGWV | 0.686 ± 0.049 |
| HTVPTLLPPNVP | 0.665 ± 0.015 |
| HVAYAQSRLFYA | 0.638 ± 0.094 |
| HVLRMFTGFLFC | 0.624 ± 0.044 |
| HVRVGRGLAVMC | 0.528 ± 0.027 |
| HVYDQLLSGAVA | 0.691 ± 0.017 |
| HWVVRGGSRRVV | 0.7056 ± 0.0045 |
| HYDTHQTPQTSP | 0.667 ± 0.023 |
| IACLDVLRRALF | 0.627 ± 0.016 |
| IADDSSHGFRGE | 0.7161 ± 0.0064 |
| IAKKNKTSKNRK | 0.703 ± 0.025 |
| IALLGCFRVNGN | 0.638 ± 0.095 |
| IAQDLEPACIKG | 0.695 ± 0.021 |
| IATPQNPRRTKA | 0.714 ± 0.045 |
| IAVPFMPADLSF | 0.718 ± 0.0089 |
| IAVSSHPVLVCK | 0.5961 ± 0.0029 |
| IAWGNEISHSLF | 0.72 ± 0.066 |
| ICGGTNFPLGSV | 0.741 ± 0.032 |
| ICGLWVCLGHGF | 0.595 ± 0.067 |
| ICSLLIRREELV | 0.681 ± 0.081 |
| ICSVHFLFFPLL | 0.573 ± 0.014 |
| IDASPRFRDFLF | 0.71 ± 0.022 |

| Sequence | protein stability index |
| --- | --- |
| IDLIKIKKKTKK | 0.786 ± 0.17 |
| IDQTSKRCKRAC | 0.672 ± 0.018 |
| IDYETIQKYKVE | 0.633 ± 0.011 |
| IEEQQKEKNRPK | 0.712 ± 0.027 |
| IFGRLRELTCWT | 0.588 ± 0.034 |
| IFHLFPFDNPYD | 0.8 ± 0.048 |
| IFMGSPYPRLPT | 0.633 ± 0.018 |
| IFPLPPSSRLTP | 0.6934 ± 0.0037 |
| IFWRGVVDVCSG | 0.584 ± 0.065 |
| IGATSMSREARY | 0.7052 ± 0.0017 |
| IGCEVLQCRCVD | 0.672 ± 0.014 |
| IGRLQGWSSGDE | 0.688 ± 0.037 |
| IGRWGVRWKAVG | 0.512 ± 0.053 |
| IGSCLSRTRKRR | 0.6922 ± 0.0031 |
| IHEGIKNENFKR | 0.71 ± 0.0053 |
| IHLQGSSYRSLT | 0.68 ± 0.14 |
| IHQDGEQKETRK | 0.6948 ± 0.0047 |
| IHSPCAMRPLIS | 0.672 ± 0.0087 |
| IHSRAAVGEYTG | 0.6425 ± 0.0046 |
| IHTNICKSKDII | 0.706 ± 0.025 |
| IILDRQNRDLKY | 0.634 ± 0.084 |
| IINKRITKETDE | 0.6738 ± 0.0023 |
| IINKRYEFRERT | 0.764 ± 0.03 |
| IISQLEQSFISP | 0.7402 ± 0.0056 |
| IKEITKENNRNE | 0.708 ± 0.083 |
| IKIKKKKKKKRD | 0.665 ± 0.012 |

| Sequence | protein stability index |
| --- | --- |
| IKKEENKNENQE | 0.6809 ± 0.0035 |
| IKKRHQNGGKKE | 0.65 ± 0.0085 |
| IKKRVTFSYDGK | 0.686 ± 0.062 |
| IKMRKICLIGSM | 0.603 ± 0.052 |
| IKRVPRRSEYRG | 0.633 ± 0.043 |
| IKSTYRNPLPPL | 0.657 ± 0.038 |
| IKYEKENNINKI | 0.679 ± 0.039 |
| ILCPIKHKRKGS | 0.703 ± 0.064 |
| ILFLGSLGCPGG | 0.697 ± 0.019 |
| ILGVVLRLCNCQ | 0.7834 ± 0.0055 |
| ILIYFWFSFFFF | 0.753 ± 0.013 |
| ILKKLNQEINKE | 0.698 ± 0.028 |
| ILLSETEMIDAD | 0.683 ± 0.022 |
| ILPPCVNIGSGV | 0.64 ± 0.043 |
| ILQGENKEGINT | 0.668 ± 0.035 |
| ILSRAGMITHCR | 0.642 ± 0.019 |
| ILTAVFAVPILP | 0.57 ± 0.04 |
| INIQKKKKIQHI | 0.508 ± 0.031 |
| INKKKKKKSKQK | 0.7 ± 0.089 |
| INKLRLNKKKSF | 0.659 ± 0.008 |
| INRGGLVRGFGS | 0.725 ± 0.17 |
| INSEKKKDRNKL | 0.779 ± 0.02 |
| INTNASSWRICK | 0.7379 ± 0.0049 |
| INVCVLSSSTAS | 0.684 ± 0.079 |
| IPCLPHPSLPPQ | 0.757 ± 0.039 |
